{"source": "paper PMC2874686", "target": "T1, Apaf-1 (human), O14727", "T1 chain": "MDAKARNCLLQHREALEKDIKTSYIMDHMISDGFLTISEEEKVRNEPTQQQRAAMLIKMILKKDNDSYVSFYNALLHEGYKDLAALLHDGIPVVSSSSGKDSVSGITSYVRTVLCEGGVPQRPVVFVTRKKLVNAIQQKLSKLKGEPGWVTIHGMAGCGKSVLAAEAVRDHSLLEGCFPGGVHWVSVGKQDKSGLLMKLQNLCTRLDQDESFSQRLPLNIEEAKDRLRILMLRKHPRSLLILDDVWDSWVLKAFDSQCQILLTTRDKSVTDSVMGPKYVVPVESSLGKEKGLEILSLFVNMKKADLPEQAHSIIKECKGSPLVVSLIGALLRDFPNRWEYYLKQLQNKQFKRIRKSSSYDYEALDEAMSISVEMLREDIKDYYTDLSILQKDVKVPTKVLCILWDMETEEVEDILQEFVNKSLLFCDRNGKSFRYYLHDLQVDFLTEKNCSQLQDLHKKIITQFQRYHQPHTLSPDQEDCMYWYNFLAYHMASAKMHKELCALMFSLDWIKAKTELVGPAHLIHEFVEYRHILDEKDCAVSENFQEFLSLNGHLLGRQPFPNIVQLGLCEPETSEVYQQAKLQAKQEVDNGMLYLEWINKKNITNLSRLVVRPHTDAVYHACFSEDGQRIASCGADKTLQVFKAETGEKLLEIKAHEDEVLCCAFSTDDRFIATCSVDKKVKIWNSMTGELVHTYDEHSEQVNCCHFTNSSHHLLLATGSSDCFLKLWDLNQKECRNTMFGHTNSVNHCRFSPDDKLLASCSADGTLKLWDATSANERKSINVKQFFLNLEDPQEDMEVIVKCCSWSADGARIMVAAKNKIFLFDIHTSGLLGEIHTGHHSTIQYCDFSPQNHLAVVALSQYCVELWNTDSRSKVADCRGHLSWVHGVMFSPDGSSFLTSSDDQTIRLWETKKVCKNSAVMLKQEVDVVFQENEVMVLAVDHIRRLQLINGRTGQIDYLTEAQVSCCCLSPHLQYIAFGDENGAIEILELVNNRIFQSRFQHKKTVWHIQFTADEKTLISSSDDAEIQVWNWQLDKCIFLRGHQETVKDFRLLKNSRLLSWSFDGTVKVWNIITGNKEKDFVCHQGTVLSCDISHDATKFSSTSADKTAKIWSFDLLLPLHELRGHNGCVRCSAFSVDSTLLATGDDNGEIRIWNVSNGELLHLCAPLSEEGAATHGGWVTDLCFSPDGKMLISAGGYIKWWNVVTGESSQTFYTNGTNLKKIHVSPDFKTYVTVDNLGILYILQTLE", "experiment": "cryo-EM structure", "conditions": "remark: other sources report otherwise"}
{"binder": "Apaf-1, O14727 1-1248 (natural protein) MDAKARNCLLQHREALEKDIKTSYIMDHMISDGFLTISEEEKVRNEPTQQQRAAMLIKMILKKDNDSYVSFYNALLHEGYKDLAALLHDGIPVVSSSSGKDSVSGITSYVRTVLCEGGVPQRPVVFVTRKKLVNAIQQKLSKLKGEPGWVTIHGMAGCGKSVLAAEAVRDHSLLEGCFPGGVHWVSVGKQDKSGLLMKLQNLCTRLDQDESFSQRLPLNIEEAKDRLRILMLRKHPRSLLILDDVWDSWVLKAFDSQCQILLTTRDKSVTDSVMGPKYVVPVESSLGKEKGLEILSLFVNMKKADLPEQAHSIIKECKGSPLVVSLIGALLRDFPNRWEYYLKQLQNKQFKRIRKSSSYDYEALDEAMSISVEMLREDIKDYYTDLSILQKDVKVPTKVLCILWDMETEEVEDILQEFVNKSLLFCDRNGKSFRYYLHDLQVDFLTEKNCSQLQDLHKKIITQFQRYHQPHTLSPDQEDCMYWYNFLAYHMASAKMHKELCALMFSLDWIKAKTELVGPAHLIHEFVEYRHILDEKDCAVSENFQEFLSLNGHLLGRQPFPNIVQLGLCEPETSEVYQQAKLQAKQEVDNGMLYLEWINKKNITNLSRLVVRPHTDAVYHACFSEDGQRIASCGADKTLQVFKAETGEKLLEIKAHEDEVLCCAFSTDDRFIATCSVDKKVKIWNSMTGELVHTYDEHSEQVNCCHFTNSSHHLLLATGSSDCFLKLWDLNQKECRNTMFGHTNSVNHCRFSPDDKLLASCSADGTLKLWDATSANERKSINVKQFFLNLEDPQEDMEVIVKCCSWSADGARIMVAAKNKIFLFDIHTSGLLGEIHTGHHSTIQYCDFSPQNHLAVVALSQYCVELWNTDSRSKVADCRGHLSWVHGVMFSPDGSSFLTSSDDQTIRLWETKKVCKNSAVMLKQEVDVVFQENEVMVLAVDHIRRLQLINGRTGQIDYLTEAQVSCCCLSPHLQYIAFGDENGAIEILELVNNRIFQSRFQHKKTVWHIQFTADEKTLISSSDDAEIQVWNWQLDKCIFLRGHQETVKDFRLLKNSRLLSWSFDGTVKVWNIITGNKEKDFVCHQGTVLSCDISHDATKFSSTSADKTAKIWSFDLLLPLHELRGHNGCVRCSAFSVDSTLLATGDDNGEIRIWNVSNGELLHLCAPLSEEGAATHGGWVTDLCFSPDGKMLISAGGYIKWWNVVTGESSQTFYTNGTNLKKIHVSPDFKTYVTVDNLGILYILQTLE", "values": [{"measurement": "stoichiometry N", "value": 7}]}
